In the array DNA melting data of Ke et al.:

test: melting temperature; melt of duplexes; conditions: sodium 0.0675 M; strand 1 µM

Going from “CGACGTGCGACATGTGCTG+CAGCACATAATGCACGTCG ((((((((...((((((((+))))))))...))))))))” to “CGACGTGCATCATGTGCTG+CAGCACATCACGCACGTCG ((((((((.(.((((((((+)))))))).).))))))))”, the Tm falls from 50.8 °C to 46.6 °C.

First: CGACGTGCGTCATGTGCTG+CAGCACATTTGGCACGTCG ((((((((...((((((((+))))))))...))))))))
Second: CGACGTGCTCAATGTGCTG+CAGCACATGTTGCACGTCG ((((((((...((((((((+))))))))...))))))))
The Tm of the first is lower: 48.7 °C for the first, 50.1 °C for the second.

Going from “CGACGTGCAACATGTGCTG+CAGCACATAGGGCACGTCG ((((((((...((((((((+))))))))...))))))))” to “CGACGTGCAAGATGTGCTG+CAGCACATGAAGCACGTCG ((((((((...((((((((+))))))))...))))))))”, the Tm rises from 49.1 °C to 52.2 °C.

Going from “CGACGTGCATGATGTGCTG+CAGCACATAGGGCACGTCG ((((((((...((((((((+))))))))...))))))))” to “CGACGTGCATGATGTGCTG+CAGCACATCCAGCACGTCG ((((((((..(((((((((+)))))))))..))))))))”, the Tm rises from 50.1 °C to 53.6 °C.

Going from “CGACGTGCTCGATGTGCTG+CAGCACATGAAGCACGTCG (((((((((..((((((((+))))))))..)))))))))” to “CGACGTGCCCTATGTGCTG+CAGCACATAATGCACGTCG ((((((((..(((((((((+)))))))))..))))))))”, the Tm falls from 52.8 °C to 48.8 °C.

“CGACGTGCCGGATGTGCTG+CAGCACATGTTGCACGTCG ((((((((...((((((((+))))))))...))))))))” and “CGACGTGCATGATGTGCTG+CAGCACATGGCGCACGTCG ((((((((...((((((((+))))))))...))))))))” are the same in Tm: 48.1 °C for the first, 48.1 °C for the second.

First: CGACGTGCAAAATGTGCTG+CAGCACATGACGCACGTCG ((((((((...((((((((+))))))))...))))))))
Second: CGACGTGCGCGATGTGCTG+CAGCACATAGTGCACGTCG ((((((((.(.((((((((+)))))))).).))))))))
The Tm of the first is lower: 51.4 °C for the first, 53.7 °C for the second.

Compared with “CGACGTGCCCTATGTGCTG+CAGCACATCCGGCACGTCG (((((((((..((((((((+))))))))..)))))))))”, “CGACGTGCACTATGTGCTG+CAGCACATGCAGCACGTCG ((((((((...((((((((+))))))))...))))))))” is lower in Tm: 52.2 °C for the first, 45.3 °C for the second.

Going from “CGACGTGCGACATGTGCTG+CAGCACATAGGGCACGTCG ((((((((...((((((((+))))))))...))))))))” to “CGACGTGCGTCATGTGCTG+CAGCACATCCTGCACGTCG ((((((((...((((((((+))))))))...))))))))”, the Tm falls from 50 °C to 48.9 °C.

Compared with “CGACGTGCCTGATGTGCTG+CAGCACATGTCGCACGTCG ((((((((...((((((((+))))))))...))))))))”, “CGACGTGCCGCATGTGCTG+CAGCACATACCGCACGTCG ((((((((.(.((((((((+)))))))).).))))))))” is higher in Tm: 48 °C for the first, 48.9 °C for the second.

Compared with “CGACGTGCGATATGTGCTG+CAGCACATGTTGCACGTCG ((((((((.(.((((((((+)))))))).).))))))))”, “CGACGTGCAATATGTGCTG+CAGCACATAGAGCACGTCG ((((((((..(((((((((+)))))))))..))))))))” is lower in Tm: 54.6 °C for the first, 52.7 °C for the second.

First: CGACGTGCAGAATGTGCTG+CAGCACATATAGCACGTCG ((((((((...((((((((+))))))))...))))))))
Second: CGACGTGCCTCATGTGCTG+CAGCACATCGCGCACGTCG ((((((((...((((((((+))))))))...))))))))
The Tm of the first is higher: 50.4 °C for the first, 46.6 °C for the second.

First: CGACGTGCAGCATGTGCTG+CAGCACATAGGGCACGTCG ((((((((...((((((((+))))))))...))))))))
Second: CGACGTGCACAATGTGCTG+CAGCACATTTGGCACGTCG ((((((((..(((((((((+)))))))))..))))))))
The Tm of the first is lower: 46.4 °C for the first, 51.2 °C for the second.

Compared with “CGACGTGCAGTATGTGCTG+CAGCACATAAAGCACGTCG ((((((((..(((((((((+)))))))))..))))))))”, “CGACGTGCACGATGTGCTG+CAGCACATTCAGCACGTCG ((((((((...((((((((+))))))))...))))))))” is lower in Tm: 51.7 °C for the first, 45.5 °C for the second.

Compared with “CGACGTGCACGATGTGCTG+CAGCACATAAAGCACGTCG ((((((((...((((((((+))))))))...))))))))”, “CGACGTGCGGGATGTGCTG+CAGCACATATGGCACGTCG ((((((((...((((((((+))))))))...))))))))” is higher in Tm: 46.8 °C for the first, 50.8 °C for the second.

Going from “CGACGTGCTTTATGTGCTG+CAGCACATGCAGCACGTCG (((((((((..((((((((+))))))))..)))))))))” to “CGACGTGCTGGATGTGCTG+CAGCACATGAGGCACGTCG ((((((((...((((((((+))))))))...))))))))”, the Tm rises from 50.9 °C to 54 °C.

First: CGACGTGCTATATGTGCTG+CAGCACATTTTGCACGTCG ((((((((.(.((((((((+)))))))).).))))))))
Second: CGACGTGCCCTATGTGCTG+CAGCACATCACGCACGTCG ((((((((...((((((((+))))))))...))))))))
The Tm of the first is higher: 50.9 °C for the first, 46.4 °C for the second.

First: CGACGTGCGTTATGTGCTG+CAGCACATGGCGCACGTCG (((((((((..((((((((+))))))))..)))))))))
Second: CGACGTGCCTCATGTGCTG+CAGCACATCGTGCACGTCG ((((((((...((((((((+))))))))...))))))))
The Tm of the first is higher: 57.5 °C for the first, 43 °C for the second.

Compared with “CGACGTGCGCGATGTGCTG+CAGCACATACCGCACGTCG (((((((((..((((((((+))))))))..)))))))))”, “CGACGTGCGACATGTGCTG+CAGCACATTTTGCACGTCG ((((((((.(.((((((((+)))))))).).))))))))” is lower in Tm: 53.8 °C for the first, 51.4 °C for the second.

First: CGACGTGCAATATGTGCTG+CAGCACATAACGCACGTCG ((((((((..(((((((((+)))))))))..))))))))
Second: CGACGTGCAACATGTGCTG+CAGCACATTACGCACGTCG ((((((((...((((((((+))))))))...))))))))
The Tm of the first is higher: 50.7 °C for the first, 47.9 °C for the second.

Compared with “CGACGTGCTTTATGTGCTG+CAGCACATTGAGCACGTCG (((((((((..((((((((+))))))))..)))))))))”, “CGACGTGCAATATGTGCTG+CAGCACATGGAGCACGTCG ((((((((...((((((((+))))))))...))))))))” is lower in Tm: 52 °C for the first, 51 °C for the second.

Compared with “CGACGTGCGCAATGTGCTG+CAGCACATCGCGCACGTCG ((((((((((.((((((((+)))))))).))))))))))”, “CGACGTGCATAATGTGCTG+CAGCACATTTCGCACGTCG ((((((((..(((((((((+)))))))))..))))))))” is lower in Tm: 60.3 °C for the first, 51 °C for the second.

Compared with “CGACGTGCGAGATGTGCTG+CAGCACATCGAGCACGTCG ((((((((..(((((((((+)))))))))..))))))))”, “CGACGTGCAAAATGTGCTG+CAGCACATTAAGCACGTCG ((((((((..(((((((((+)))))))))..))))))))” is lower in Tm: 64.5 °C for the first, 52.4 °C for the second.

First: CGACGTGCCGAATGTGCTG+CAGCACATCGCGCACGTCG ((((((((...((((((((+))))))))...))))))))
Second: CGACGTGCTGAATGTGCTG+CAGCACATCTGGCACGTCG ((((((((...((((((((+))))))))...))))))))
The Tm of the first is higher: 54.7 °C for the first, 51.7 °C for the second.

Compared with “CGACGTGCGGAATGTGCTG+CAGCACATTGGGCACGTCG ((((((((..(((((((((+)))))))))..))))))))”, “CGACGTGCCTAATGTGCTG+CAGCACATCACGCACGTCG ((((((((.(.((((((((+)))))))).).))))))))” is lower in Tm: 53.5 °C for the first, 46.3 °C for the second.

First: CGACGTGCAAGATGTGCTG+CAGCACATGCAGCACGTCG ((((((((...((((((((+))))))))...))))))))
Second: CGACGTGCGTTATGTGCTG+CAGCACATGTGGCACGTCG ((((((((...((((((((+))))))))...))))))))
The Tm of the first is higher: 52.3 °C for the first, 49.6 °C for the second.

First: CGACGTGCGCTATGTGCTG+CAGCACATCGAGCACGTCG ((((((((.(.((((((((+)))))))).).))))))))
Second: CGACGTGCAAGATGTGCTG+CAGCACATCCTGCACGTCG (((((((((.(((((((((+))))))))).)))))))))
The Tm of the first is lower: 53.1 °C for the first, 56.5 °C for the second.

First: CGACGTGCGAAATGTGCTG+CAGCACATGGTGCACGTCG ((((((((...((((((((+))))))))...))))))))
Second: CGACGTGCCCTATGTGCTG+CAGCACATAGGGCACGTCG (((((((((((((((((((+)))))))))))))))))))
The Tm of the first is lower: 50.6 °C for the first, 64.4 °C for the second.

Compared with “CGACGTGCCTTATGTGCTG+CAGCACATGCAGCACGTCG ((((((((...((((((((+))))))))...))))))))”, “CGACGTGCTCTATGTGCTG+CAGCACATAACGCACGTCG ((((((((..(((((((((+)))))))))..))))))))” is higher in Tm: 49 °C for the first, 49.7 °C for the second.

First: CGACGTGCGACATGTGCTG+CAGCACATATGGCACGTCG ((((((((.(.((((((((+)))))))).).))))))))
Second: CGACGTGCAGAATGTGCTG+CAGCACATTACGCACGTCG ((((((((..(((((((((+)))))))))..))))))))
The Tm of the first is lower: 50.2 °C for the first, 52.7 °C for the second.

Compared with “CGACGTGCGAAATGTGCTG+CAGCACATGACGCACGTCG (((((((((..((((((((+))))))))..)))))))))”, “CGACGTGCTATATGTGCTG+CAGCACATAGTGCACGTCG ((((((((..(((((((((+)))))))))..))))))))” is lower in Tm: 55 °C for the first, 49 °C for the second.

Going from “CGACGTGCTCCATGTGCTG+CAGCACATATAGCACGTCG (((((((((..((((((((+))))))))..)))))))))” to “CGACGTGCAACATGTGCTG+CAGCACATCCAGCACGTCG ((((((((...((((((((+))))))))...))))))))”, the Tm falls from 50.4 °C to 47.1 °C.

Going from “CGACGTGCATCATGTGCTG+CAGCACATTTGGCACGTCG ((((((((...((((((((+))))))))...))))))))” to “CGACGTGCCCGATGTGCTG+CAGCACATCCCGCACGTCG ((((((((..(((((((((+)))))))))..))))))))”, the Tm rises from 48.2 °C to 51.9 °C.

Going from “CGACGTGCACCATGTGCTG+CAGCACATTCGGCACGTCG ((((((((...((((((((+))))))))...))))))))” to “CGACGTGCGAGATGTGCTG+CAGCACATAGTGCACGTCG ((((((((...((((((((+))))))))...))))))))”, the Tm rises from 42.6 °C to 47.6 °C.

First: CGACGTGCCGTATGTGCTG+CAGCACATTTAGCACGTCG ((((((((...((((((((+))))))))...))))))))
Second: CGACGTGCCTAATGTGCTG+CAGCACATCGCGCACGTCG ((((((((...((((((((+))))))))...))))))))
The Tm of the first is higher: 48.4 °C for the first, 47 °C for the second.

Going from “CGACGTGCATGATGTGCTG+CAGCACATAACGCACGTCG ((((((((.(.((((((((+)))))))).).))))))))” to “CGACGTGCTCAATGTGCTG+CAGCACATGCTGCACGTCG ((((((((...((((((((+))))))))...))))))))”, the Tm falls from 49.3 °C to 47.9 °C.
